# Measurements from patent publication CN111647079A (UNIV BEIBU GULF, dated 2020).
# B1: Fab 20抗体 (抗新型冠状病毒N蛋白的中和抗体) (Fab, V domains shown)
# VH: VQLLEQSGAEVKKPGSSVKVSCKASGGTFSSYAISWVRQAPGQGLEWMGGTIPIFGTANYAQKFQGRVTITADESTSTAYMELSSLRSEDTAVYYCARGGWSSSAGGYYGMDVWGQGTTVTVSS
# VL: not shown
# notes: also called HFab20/LFab20
# What was measured:
# [1] = molecular target: T1, 2019-NCOV Nucleocapsid (原核表达N蛋白) (SARS-CoV-2, UniProt P0DTC9 1-419)
# [2] = molecular target: NCOV-SARI-N-his (真核表达N蛋白) (SARS-CoV-2, UniProt P0DTC9 1-419)
# [3] = molecular target: T1, 2019-NCOV Nucleocapsid (原核表达N蛋白); assay: BLI (Fortebio BLItz), […], global fit
binder,measurement,setting,value
B1,EC50,[1],3.98 µg/mL
same,EC50,[2],4.75 µg/mL
same,Kd,[3],111 nM
